This note sets out measurements from IntAct's records for PubMed 9418861.

B1: Serine/threonine-protein kinase MRCK alpha (Homo sapiens), Q5VT25 (parent)
chain: MSGEVRLRQLEQFILDGPAQTNGQCFSVETLLDILICLYDECNNSPLRREKNILEYLEWAKPFTSKVKQMRLHREDFEILKVIGRGAFGEVAVVKLKNADKVFAMKILNKWEMLKRAETACFREERDVLVNGDNKWITTLHYAFQDDNNLYLVMDYYVGGDLLTLLSKFEDRLPEDMARFYLAEMVIAIDSVHQLHYVHRDIKPDNILMDMNGHIRLADFGSCLKLMEDGTVQSSVAVGTPDYISPEILQAMEDGKGRYGPECDWWSLGVCMYEMLYGETPFYAESLVETYGKIMNHKERFQFPAQVTDVSENAKDLIRRLICSREHRLGQNGIEDFKKHPFFSGIDWDNIRNCEAPYIPEVSSPTDTSNFDVDDDCLKNSETMPPPTHTAFSGHHLPFVGFTYTSSCVLSDRSCLRVTAGPTSLDLDVNVQRTLDNNLATEAYERRIKRLEQEKLELSRKLQESTQTVQALQYSTVDGPLTASKDLEIKNLKEEIEKLRKQVTESSHLEQQLEEANAVRQELDDAFRQIKAYEKQIKTLQQEREDLNKELVQASERLKNQSKELKDAHCQRKLAMQEFMEINERLTELHTQKQKLARHVRDKEEEVDLVMQKVESLRQELRRTERAKKELEVHTEALAAEASKDRKLREQSEHYSKQLENELEGLKQKQISYSPGVCSIEHQQEITKLKTDLEKKSIFYEEELSKREGIHANEIKNLKKELHDSEGQQLALNKEIMILKDKLEKTRRESQSEREEFESEFKQQYEREKVLLTEENKKLTSELDKLTTLYENLSIHNQQLEEEVKDLADKKESVAHWEAQITEIIQWVSDEKDARGYLQALASKMTEELEALRNSSLGTRATDMPWKMRRFAKLDMSARLELQSALDAEIRAKQAIQEELNKVKASNIITECKLKDSEKKNLELLSEIEQLIKDTEELRSEKGIEHQDSQHSFLAFLNTPTDALDQFERSPSCTPASKGRRTVDSTPLSVHTPTLRKKGCPGSTGFPPKRKTHQFFVKSFTTPTKCHQCTSLMVGLIRQGCSCEVCGFSCHITCVNKAPTTCPVPPEQTKGPLGIDPQKGIGTAYEGHVRIPKPAGVKKGWQRALAIVCDFKLFLYDIAEGKASQPSVVISQVIDMRDEEFSVSSVLASDVIHASRKDIPCIFRVTASQLSASNNKCSILMLADTENEKNKWVGVLSELHKILKKNKFRDRSVYVPKEAYDSTLPLIKTTQAAAIIDHERIALGNEEGLFVVHVTKDEIIRVGDNKKIHQIELIPNDQLVAVISGRNRHVRLFPMSALDGRETDFYKLSETKGCQTVTSGKVRHGALTCLCVAMKRQVLCYELFQSKTRHRKFKEIQVPYNVQWMAIFSEQLCVGFQSGFLRYPLNGEGNPYSMLHSNDHTLSFIAHQPMDAICAVEISSKEYLLCFNSIGIYTDCQGRRSRQQELMWPANPSSCCYNAPYLSVYSENAVDIFDVNSMEWIQTLPLKKVRPLNNEGSLNLLGLETIRLIYFKNKMAEGDELVVPETSDNSRKQMVRNINNKRRYSFRVPEEERMQQRREMLRDPEMRNKLISNPTNFNHIAHMGPGDGIQILKDLPMNPRPQESRTVFSGSVSIPSITKSRPEPGRSMSASSGLSARSSAQNGSALKREFSGGSYSAKRQPMPSPSEGSLSSGGMDQGSDAPARDFDGEDSDSPRHSTASNSSNLSSPPSPASPRKTKSLSLESTDRGSWDP

Variants of B1 are the subject of the test. The following applies: with cdc42_human CDC42, P60953.
Chain of cdc42_human CDC42, P60953 (P60953 whole entry, looked up): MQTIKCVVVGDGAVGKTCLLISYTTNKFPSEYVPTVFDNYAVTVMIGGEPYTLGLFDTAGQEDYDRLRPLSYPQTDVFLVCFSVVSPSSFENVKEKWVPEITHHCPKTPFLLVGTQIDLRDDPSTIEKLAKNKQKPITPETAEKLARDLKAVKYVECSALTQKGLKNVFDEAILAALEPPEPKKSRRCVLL
For the variant H1582A, the “effect of a mutation on the interaction” value is on record as “decreasing interaction”.
The value for H1579A was “decreasing interaction”.
